Biological target: thrombin (factor IIa)

For “cysteine-rich anticoagulant protein (CRA), recombinant, mature form with C-terminal His-Tag (natural protein)”, the thrombin time (TT), clotting time of control plasma, preparation CRA P1 at 1 µM and 5 µM (21.8 s to 66.8 s; control without protein 14.3 s and 11.7 s) was 66.8 s, the thrombin time (TT), clotting time of control plasma, preparation CRA P2 at 1 µM and 5 µM (16.6 s to 30.7 s; control without protein 14.3 s and 11.7 s) was 30.7 s and the thrombin time (TT), clotting time of control plasma, preparation CRA P3 at 1 µM and 5 µM (20.1 s to 43.3 s; control without protein 14.3 s and 11.7 s) was 43.3 s.

— paper PMC12731043
